Drawing on US5248605, this text covers activity (units per g wet cells) for 1 substance.

The subject of the data set is HpaII restriction endonuclease (R.HpaII) (Haemophilus parainfluenzae ATCC 49669). As to the kind of experiment: cleavage_in_vitro. As to conditions: IPTG-induced E. coli extract; 1x REact 8 buffer, 30 min 37 C; HpaII digest pattern on agarose gel.

A value given as a limit tells only on which side of the number the result lay.

Consider phage lambda DNA, for which the activity (units per g wet cells) was > 50000.
